Drawing on patent US20260070975A1, this text covers IC50 (read off the curve) and IC50, inhibition of SCF-dependent proliferation of M-07e cells for one molecule.

The target in assay [1] is c-Kit expressed on the cell surface of M-07e cells (human) (UniProt P10721).
Assay [2] shares this target. Nature of the assay: cell-based or functional assay.

c-Kit expressed on the cell surface of M-07e cells (human), sequence (P10721 26-976): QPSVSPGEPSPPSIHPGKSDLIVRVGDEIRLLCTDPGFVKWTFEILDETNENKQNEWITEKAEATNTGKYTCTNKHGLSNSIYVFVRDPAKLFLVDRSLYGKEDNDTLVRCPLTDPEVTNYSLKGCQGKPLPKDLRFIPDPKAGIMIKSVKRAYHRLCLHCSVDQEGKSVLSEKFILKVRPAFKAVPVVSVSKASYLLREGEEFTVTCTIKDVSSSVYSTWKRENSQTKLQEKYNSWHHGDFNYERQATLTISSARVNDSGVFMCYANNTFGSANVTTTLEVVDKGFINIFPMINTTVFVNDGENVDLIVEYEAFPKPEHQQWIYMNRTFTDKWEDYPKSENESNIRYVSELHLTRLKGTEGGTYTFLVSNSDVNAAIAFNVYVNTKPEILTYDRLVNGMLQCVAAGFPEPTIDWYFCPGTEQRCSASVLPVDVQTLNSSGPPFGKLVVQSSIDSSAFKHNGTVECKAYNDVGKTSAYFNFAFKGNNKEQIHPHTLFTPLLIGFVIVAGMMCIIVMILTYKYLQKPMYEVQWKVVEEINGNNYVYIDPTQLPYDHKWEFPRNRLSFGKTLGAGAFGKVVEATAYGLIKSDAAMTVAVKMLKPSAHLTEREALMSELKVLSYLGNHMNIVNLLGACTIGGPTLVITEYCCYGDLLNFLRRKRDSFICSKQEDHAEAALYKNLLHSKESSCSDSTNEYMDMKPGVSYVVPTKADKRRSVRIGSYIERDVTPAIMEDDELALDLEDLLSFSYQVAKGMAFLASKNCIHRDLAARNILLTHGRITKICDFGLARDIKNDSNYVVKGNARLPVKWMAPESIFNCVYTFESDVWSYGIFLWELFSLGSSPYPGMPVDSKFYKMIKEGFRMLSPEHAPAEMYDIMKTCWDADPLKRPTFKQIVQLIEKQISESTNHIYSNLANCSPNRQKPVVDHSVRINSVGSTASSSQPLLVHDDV

B1: CDX-0159 (antibody, INN chains, looked up, V domains shown)
VH: QVQLVQSGAEVKKPGASVKLSCKASGYTFTDYYINWVRQAPGKGLEWIARIYPGSGNTYYNEKFKGRATLTADKSTSTAYMQLSSLRSEDTAVYFCARGVYYFDYWGQGTTVTVSS
VL: DIVMTQSPSSLSASVGDRVTITCKASQNVRTNVAWYQQKPGKAPKALIYSASYRYSGVPDRFTGSGSGTDFTLTISSLQPEDFADYFCQQYNSYPRTFGGGTKVEIK
The molecule B1 returned an IC50 (read off the curve) in assay [1] of 0.1 to 0.2 nM. The molecule also showed an IC50, inhibition of SCF-dependent proliferation of M-07e cells in assay [2] of 0.408 nM.
